Test results from IntAct's records for PubMed 19934257.

B1: NAD-dependent protein deacetylase sirtuin-1 (Homo sapiens), Q96EB6 (parent)
chain: MADEAALALQPGGSPSAAGADREAASSPAGEPLRKRPRRDGPGLERSPGEPGGAAPEREVPAAARGCPGAAAAALWREAEAEAAAAGGEQEAQATAAAGEGDNGPGLQGPSREPPLADNLYDEDDDDEGEEEEEAAAAAIGYRDNLLFGDEIITNGFHSCESDEEDRASHASSSDWTPRPRIGPYTFVQQHLMIGTDPRTILKDLLPETIPPPELDDMTLWQIVINILSEPPKRKKRKDINTIEDAVKLLQECKKIIVLTGAGVSVSCGIPDFRSRDGIYARLAVDFPDLPDPQAMFDIEYFRKDPRPFFKFAKEIYPGQFQPSLCHKFIALSDKEGKLLRNYTQNIDTLEQVAGIQRIIQCHGSFATASCLICKYKVDCEAVRGDIFNQVVPRCPRCPADEPLAIMKPEIVFFGENLPEQFHRAMKYDKDEVDLLIVIGSSLKVRPVALIPSSIPHEVPQILINREPLPHLHFDVELLGDCDVIINELCHRLGGEYAKLCCNPVKLSEITEKPPRTQKELAYLSELPPTPLHVSEDSSSPERTSPPDSSVIVTLLDQAAKSNDDLDVSESKGCMEEKPQEVQTSRNVESIAEQMENPDLKNVGSSTGEKNERTSVAGTVRKCWPNRVAKEQISRRLDGNQYLFLPPNRYIFHGAEVYSDSEDDVLSSSSCGSNSDSGTCQSPSLEEPMEDESEIEEFYNGLEDEPDVPERAGGAGFGTDGDDQEAINEAISVKQEVTDMNYPSNKS

Variants of: B1
Conditions: with apex1_human APEX1, P27695
Sequence of apex1_human APEX1, P27695 (P27695 whole entry): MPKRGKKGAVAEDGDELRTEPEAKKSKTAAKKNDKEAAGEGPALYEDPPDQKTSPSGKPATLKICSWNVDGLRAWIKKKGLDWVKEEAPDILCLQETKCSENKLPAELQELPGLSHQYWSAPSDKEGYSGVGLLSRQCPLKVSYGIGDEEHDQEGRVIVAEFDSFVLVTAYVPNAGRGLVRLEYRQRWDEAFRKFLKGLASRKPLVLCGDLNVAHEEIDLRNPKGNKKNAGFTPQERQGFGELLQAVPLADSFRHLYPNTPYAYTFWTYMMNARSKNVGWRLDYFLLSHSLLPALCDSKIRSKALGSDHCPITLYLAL

effect of a mutation on the interaction	Variant
disrupting interaction	H363Y
